From publication PMC8183112

What was measured:
[1] = activation time constant, single exponential fit, +50 to +120 mV; settings: glycan lost; control: wild-type BK (α+β1)
[2] = whole-cell G-V curve, Boltzmann fit, 300 nM Ca2+; settings: glycan lost; control: wild-type BK (α+β1)
[3] = whole-cell patch clamp, 100 nM IbTx, 300 nM Ca2+; settings: glycan lost; control: wild-type BK (α+β1)
[4] = whole-cell patch clamp, current density; settings: glycan lost; control: wild-type BK (α+β1)
[5] = whole-cell patch clamp, 400 nM martentoxin, 300 nM Ca2+; settings: glycan lost; control: wild-type BK (α+β1)
[6] = whole-cell patch clamp, 400 nM martentoxin, no cytoplasmic Ca2+; settings: glycan lost; control: wild-type BK (α+β1)
[7] = western blot, relative β1 level; settings: glycan lost; control: wild-type β1, untreated
[8] = whole-cell patch clamp, 100 nM MarTX, no cytoplasmic Ca2+; settings: glycan lost; control: untreated wild-type BK (α+β1)
[9] = whole-cell patch clamp, 400 nM MarTX, no cytoplasmic Ca2+; settings: glycan lost; control: untreated wild-type BK (α+β1)
[10] = whole-cell patch clamp, 100 nM IbTX, 300 nM Ca2+; settings: glycan lost; control: untreated wild-type BK (α+β1)
[11] = whole-cell patch clamp, 400 nM IbTX, 300 nM Ca2+; settings: glycan lost; control: untreated wild-type BK (α+β1)

Row | Protein | other: channel activation kinetics [1] | other: voltage dependence of activation, other: V1/2 [2] | other: toxin inhibition of channel current, other: fractional current remaining (If) [3] | other: channel current [4] | other: toxin enhancement of channel current, other: fractional current remaining (If) [5] | other: toxin inhibition of channel current, other: fractional current remaining (If) [6] | expression_or_secretion [7] | other: toxin inhibition of channel current, other: fractional current remaining (If) [8] | other: toxin inhibition of channel current, other: fractional current remaining (If) [9] | other: toxin inhibition of channel current, other: fractional current remaining (If) [10] | other: toxin inhibition of channel current, other: fractional current remaining (If) [11]
1 | BK channel β1 subunit: N80Q/N142Q (protein) parent chain: MVKKLVMAQKRGETRALCLGVTMVVCAVITYYILVTTVLPLYQKSVWTQESKCHLIETNIRDQEELKGKKVPQYPCLWVNVSAAGRWAVLYHTEDTRDQNQQCSYIPGSVDNYQTARADVEKVRAKFQEQQVFYCFSAPRGNETSVLFQRLYGPQALLFSLFWPTFLLTGGLLIIAMVKSNQYLSILAAQK | decreases | no change, 65.35 ± 1.48 vs 66.52 ± 1.47, slope 22.89 ± 1.24 vs 22.55 ± 1.21 | increases, 0.46 ± 0.04 vs 0.92 ± 0.01 | no change | abolishes, 1.04 ± 0.02 vs 1.13 ± 0.01 | increases, 0.72 ± 0.099 vs 0.97 ± 0.018 | no change | – | – | – | –
2 | BK channel β1 subunit: N80A/N142A (protein) parent chain: MVKKLVMAQKRGETRALCLGVTMVVCAVITYYILVTTVLPLYQKSVWTQESKCHLIETNIRDQEELKGKKVPQYPCLWVNVSAAGRWAVLYHTEDTRDQNQQCSYIPGSVDNYQTARADVEKVRAKFQEQQVFYCFSAPRGNETSVLFQRLYGPQALLFSLFWPTFLLTGGLLIIAMVKSNQYLSILAAQK | – | – | increases, 0.46 ± 0.04 vs 0.92 ± 0.01 | no change | abolishes, 0.99 ± 0.02 vs 1.13 ± 0.01 | increases, 0.71 ± 0.064 vs 0.97 ± 0.018 | no change | – | – | – | –
3 | BK channel β1 subunit: PNGase F (protein) parent chain: MVKKLVMAQKRGETRALCLGVTMVVCAVITYYILVTTVLPLYQKSVWTQESKCHLIETNIRDQEELKGKKVPQYPCLWVNVSAAGRWAVLYHTEDTRDQNQQCSYIPGSVDNYQTARADVEKVRAKFQEQQVFYCFSAPRGNETSVLFQRLYGPQALLFSLFWPTFLLTGGLLIIAMVKSNQYLSILAAQK | – | – | – | – | – | – | – | increases, 0.83 ± 0.03 vs 1.00 ± 0.03 | increases, 0.63 ± 0.02 vs 1.00 ± 0.03 | increases, 0.54 ± 0.05 vs 0.89 ± 0.01 | increases, 0.43 ± 0.06 vs 0.65 ± 0.03
4 | BK channel β1 subunit: tunicamycin (protein) parent chain: MVKKLVMAQKRGETRALCLGVTMVVCAVITYYILVTTVLPLYQKSVWTQESKCHLIETNIRDQEELKGKKVPQYPCLWVNVSAAGRWAVLYHTEDTRDQNQQCSYIPGSVDNYQTARADVEKVRAKFQEQQVFYCFSAPRGNETSVLFQRLYGPQALLFSLFWPTFLLTGGLLIIAMVKSNQYLSILAAQK | – | – | – | – | – | – | no change | – | – | – | –
